From the RNAGym collection of RNA variant scans (doi:10.1021/acssynbio.7b00057)

B1: Pistol ribozyme (parent)
chain: GGGUCGUUGUUCCAUAAUCGCGUGGAUAUGGCACGCAAGUUUCUACCGGGCACCGUAAAUGUCCGACUGGAGCCGUUCGGGCGGCUAUAAACAGACCUCAGGCCCGAAGCGUGGCGGCACCUGCCGCCGGUGGUAAAAAAGAUCGGAAGAGCACACGUCU

Variants of: B1
Assay: aptazyme ON/OFF ratio, guanine; higher = stronger switching; co-transcriptional cleavage with and without guanine

Variant	aptazyme ON/OFF ratio
U7G G9C U10C U11C C12A	1.03
U7G G9C U10C U11C C12U	1.06
U7G G9C U10C U11C C12G	1.14
U7G G9C U10G C12U C13G	1.38
U7G G9C U10G C12U C13U	1.13
U7G G9C U10G C12U C13A	1.24
U7G G9C U10A U11C C12U C13U	1.18
U7G G9C U10A U11C C12U C13A	1.33
U7G G9C U10A U11C C12U C13G	1.19
U7G G9U U10A U11C C12U C13A	1.39
U7G G9U U10A U11C C12U C13U	1.39
U7G G9U U10A U11C C12U C13G	1.27
U7G G9U U10C U11C C12A	1.37
U7G G9C U10A U11A C12U C13A	1.29
U7G G9C U10A U11A C12U C13U	1.29
U7G G9C U10A U11A C12U C13G	1.25
U7G G9U U10C U11A C12G C13G	1.13
U7G G9U U10C U11A C12G C13A	1.13
U7G G9U U10C U11A C12G C13U	1.26
U7G G9C U10G C12G C13U	1.31
U7G G9C U10G C12G C13G	1.18
U7G G9C U10G C12G C13A	1.28
U7G G9U U10A U11A C12U C13G	1.29
U7G G9U U10A U11A C12U C13U	1.28

Variant	aptazyme ON/OFF ratio
U7G G9U U10A U11A C12U C13A	0.962
U7G G9C U10C U11A C12G	1.31
U7G G9C U10C U11A C12U	1.4
U7G G9C U10C U11A C12A	1.46
U7G G9U U10A C12G C13U	1.4
U7G G9U U10A C12G C13A	1.09
U7G G9U U10A C12G C13G	1.24
U7G G9C U10G U11A C13A	1.18
U7G G9C U10G U11A C13G	1.16
U7G G9C U10G U11A C13U	1.24
U7G G9U U10A U11G C13U	1.29
U7G G9U U10A U11G C13G	1.15
U7G G9U U10A U11G C13A	1.13
U7G G9U U10A U11A C12A C13U	1.38
U7G G9U U10A U11A C12A C13A	1.17
U7G G9U U10A U11A C12A C13G	1.26
U7G G9C U10A U11G C12G C13G	1.08
U7G G9C U10A U11G C12G C13A	1.1
U7G G9C U10A U11G C12G C13U	1.12
U7G G9C U11C C12G	1.65
U7G G9C U11C C12A	2.21
U7G G9C U11C C12U	2.15
U7G G9U	2.19
U7G G9C U10C U11G C12G C13U	1.08

Variant	aptazyme ON/OFF ratio
U7G G9C U10C U11G C12G C13G	1.08
U7G G9C U10C U11G C12G C13A	1.09
U7G G9U U10A U11C C12A	1.56
U7G G9U U10A U11C C12G	1.5
U7G G9U U10A U11C C12U	1.32
U7G G9C U11A C12U C13G	1.33
U7G G9C U11A C12U C13A	1.42
U7G G9C U11A C12U C13U	1.32
U7G G9U U10A U11A C12G C13A	1.13
U7G G9U U10A U11A C12G C13U	1.42
U7G G9U U10A U11A C12G C13G	1.11
U7G G9U U10C U11A C12A C13A	1.22
U7G G9U U10C U11A C12A C13G	1.16
U7G G9U U10C U11A C12A C13U	1.36
U7G G9C U10A U11G C13U	1.4
U7G G9C U10A U11G C13G	1.14
U7G G9C U10A U11G C13A	1.13
U7G G9U U10C U11C	1.42
U7G G9U U10C U11A	3.43
U7G G9C U10C U11C C12A C13G	1.09
U7G G9C U10C U11C C12A C13A	1.02
U7G G9C U10C U11C C12A C13U	1.03
U7G G9U C13A	1.38
U7G G9U C13G	1.2

Variant	aptazyme ON/OFF ratio
U7G G9U C13U	1.45
U7G G9C U10C U11A C12A C13G	1.15
U7G G9C U10C U11A C12A C13A	1.21
U7G G9C U10C U11A C12A C13U	1.25
U7G G9C U11G C12U	1.43
U7G G9C U11G C12A	1.41
U7G G9C U11G C12G	1.31
U7G G9U U10A C12A C13U	1.75
U7G G9U U10A C12A C13G	1.26
U7G G9U U10A C12A C13A	1.38
U7G G9U U10A C12U C13A	1.06
U7G G9U U10A C12U C13G	1.14
U7G G9U U10A C12U C13U	1.15
U7G G9C U10C U11A C12U C13G	1.21
U7G G9C U10C U11A C12U C13A	1.18
U7G G9C U10C U11A C12U C13U	1.32
U7G G9C U10A U11G C12U C13U	1.26
U7G G9C U10A U11G C12U C13A	1.18
U7G G9C U10A U11G C12U C13G	1.2
U7G G9U U10C C12U	1.51
U7G G9U U10C C12A	2.03
U7G G9U U10C C12G	1.37
U7G G9C U10C U11C C13G	1.04
U7G G9C U10C U11C C13A	1.05

Variant	aptazyme ON/OFF ratio
U7G G9C U10C U11C C13U	1.03
U7G G9C U10G U11G C12G C13G	1.06
U7G G9C U10G U11G C12G C13U	1.12
U7G G9C U10G U11G C12G C13A	1.11
U7G G9U U10C C12G C13G	1.22
U7G G9U U10C C12G C13U	1.29
U7G G9U U10C C12G C13A	1.27
U7G G9C U10C U11G	1.18
U7G G9C U10C U11C	1.17
U7G G9C U10C U11A	1.65
U7G G9C U11C C12A C13U	1.5
U7G G9C U11C C12A C13G	1.28
U7G G9C U11C C12A C13A	1.42
U7G G9U U10A U11C C12G C13A	1.22
U7G G9U U10A U11C C12G C13G	1.04
U7G G9U U10A U11C C12G C13U	1.27
U7G G9C U10A U11C C12G C13U	1.29
U7G G9C U10A U11C C12G C13A	1.16
U7G G9C U10A U11C C12G C13G	1.06
U7G G9C U10A U11A C12G C13A	1.14
U7G G9C U10A U11A C12G C13U	1.27
U7G G9C U10A U11A C12G C13G	1.15
U7G G9C U11C C12G C13A	1.35
U7G G9C U11C C12G C13G	1.07

Variant	aptazyme ON/OFF ratio
U7G G9C U11C C12G C13U	1.36
U7G G9C U10A U11C C13G	1.09
U7G G9C U10A U11C C13A	1.21
U7G G9C U10A U11C C13U	1.14
U7G G9U U10A	3.84
U7G G9U U10C	3.94
U7G G9C U10A U11G	3.08
U7G G9C U10A U11C	1.17
U7G G9C U11C C12U C13G	1.27
U7G G9C U11C C12U C13A	1.37
U7G G9C U11C C12U C13U	1.25
U7G G9C U11A C13G	1.19
U7G G9C U11A C13A	1.41
U7G G9C U11A C13U	1.62
U7G G9U C12G C13A	1.16
U7G G9U C12G C13G	1.22
U7G G9U C12G C13U	1.36
U7G G9C U10G U11G C12U	1.32
U7G G9C U10G U11G C12G	1.07
U7G G9C U10G U11G C12A	1.05
U7G G9C U10C U11C C12U C13G	1.07
U7G G9C U10C U11C C12U C13U	1.11
U7G G9C U10C U11C C12U C13A	1.03
U7G G9U U10A U11C C12A C13A	1.24

Variant	aptazyme ON/OFF ratio
U7G G9U U10A U11C C12A C13G	1.21
U7G G9U U10A U11C C12A C13U	1.46
U7G G9U U10C C13G	1.1
U7G G9U U10C C13A	1.37
U7G G9U U10C C13U	1.66
U7G G9C U10C C12U C13G	1.21
U7G G9C U10C C12U C13A	1.21
U7G G9C U10C C12U C13U	1.34
U7G G9C U10G U11G C13A	1.17
U7G G9C U10G U11G C13U	1.36
U7G G9C U10G U11G C13G	1.21
U7G G9C U10C U11A C12G C13A	1.13
U7G G9C U10C U11A C12G C13U	1.31
U7G G9C U10C U11A C12G C13G	1.2
U7G G9U C12G	1.42
U7G G9U C12U	2.07
U7G G9U C12A	1.97
U7G G9U U10C U11C C12A C13A	1.37
U7G G9U U10C U11C C12A C13G	1.4
U7G G9U U10C C12A C13G	1.21
U7G G9U U10C C12A C13A	1.42
U7G G9U U10C C12A C13U	1.35
U7G G9U U10C U11A C13G	1.16
